This note sets out measurements from patent US20120082676A1 (RESEARCH FOUNDATION OF STATE UNIVERSITY OF NEW YORK, published 2012).

Assay [1] concerns the target T1, high molecular weight kininogen (HK) (UniProt P01042 19-644).
T1 sequence (looked up): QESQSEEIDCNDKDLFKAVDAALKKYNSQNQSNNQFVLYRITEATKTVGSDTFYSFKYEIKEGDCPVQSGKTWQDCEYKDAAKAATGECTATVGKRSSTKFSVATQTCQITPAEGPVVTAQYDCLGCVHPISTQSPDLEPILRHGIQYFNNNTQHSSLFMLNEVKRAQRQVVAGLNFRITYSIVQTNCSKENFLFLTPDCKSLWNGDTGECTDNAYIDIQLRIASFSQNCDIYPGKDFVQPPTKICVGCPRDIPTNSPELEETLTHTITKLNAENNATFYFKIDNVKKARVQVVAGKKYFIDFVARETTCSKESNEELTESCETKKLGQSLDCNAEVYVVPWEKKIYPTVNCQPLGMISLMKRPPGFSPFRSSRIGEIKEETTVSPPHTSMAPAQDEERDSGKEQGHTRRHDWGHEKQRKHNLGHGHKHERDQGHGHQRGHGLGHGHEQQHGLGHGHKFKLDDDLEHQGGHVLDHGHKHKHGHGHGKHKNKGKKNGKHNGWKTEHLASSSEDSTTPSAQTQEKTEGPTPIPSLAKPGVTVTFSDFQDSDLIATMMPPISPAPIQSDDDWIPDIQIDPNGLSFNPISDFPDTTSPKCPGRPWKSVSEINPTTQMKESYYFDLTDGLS
The experiment in a line: HK binding to recombinant gC1q-R deletion mutants (FIG. 7).

For assay [2], the target named is T1, high molecular weight kininogen (HK). The experiment in a line: solid phase ELISA, peptide on the plate. An excerpt: Several peptides were synthesized that correspond with the gC1q-R domains of very high negative charge and, which based on their location in the crystal structure on the solution-face, are hypothesized to interact with solution-phase ligands.
(In an ELISA, binding on a coated surface is turned into a signal by an enzyme label.)

B1: gC1q-R deletion mutant lacking residues 204-218 (receptor, human, UniProt Q07021 74-282, looked up)
chain: LHTDGDKAFVDFLSDEIKEERKIQKHKTLPKMSGGWELELNGTEAKLVRKVAGEKITVTFNINNSIPPTFDGEEEPSQGQKVEEQEPELTSTPNFVVEVIKNDDGKKALVLDCHYPEDEVGQEDEAESDIWKDTNYTLNTDSLDWALYDHLMDFLADRGVDNTFADELVELSTALEHQEYITFLEDLKSFVKSQ
notes: also called mutant lacking these residues
On to B1, for which the binding result in assay [1] is “no binding”.

For the molecule EDEVGQEDEAESD (Synthetic peptide coated on ELISA wells) [gC1q-R peptide (amino acids 190-202)], the binding result in assay [2] is on record as “binds”.
